These results are taken from patent US11065317B2, “Heat shock protein-binding peptide compositions and methods of use thereof” (Agenus Inc., priority 2018, dated 2021).

In experiment [1] the target is T1, Recombinant human Hsc70 (rhHsc70) (Homo sapiens, UniProt P11142).
T1 construct: made in house; host or cells: E. coli
Nature of the experiment: Complexation of rhHsc70 with PEP006 or a PEP006-containing polypeptide, size exclusion HPLC chromatogram. It is filed as binding. As for the experimental part:
Briefly, PEP006 peptide was reconstituted in water for injection (WFI) to a concentration of 645 μM. Recombinant human Hsc70 (rhHsc70) was diluted at a concentration of 1.66 mg/mL. Both solutions were pre-warmed in a 37° C. incubator for 10 minutes, and were combined and incubated at 37° C. for 60 minutes. The final concentration of rhHsc70 was 1 mg/mL (about 14.1 μM), and the molar ratio of PEP006 to rhHsc70 was 0.25:1, 0.5:1, 1:1, 1.5:1, 2:1, 2.5:1, and 3:1. A negative control containing only rhHsc70 at 1 mg/mL was also prepared.
A quantity of 10 μg of each sample was injected neat in triplicate for resolution by size exclusion HPLC (Alliance HPLC, Waters Model #2695 Separations Module; Dual Wavelength UV Detector, Waters Model 2487) using a chromatography column TSKgel SuperSW3000 (Tosoh Bioscience, Catalog #18675). […] UV absorbance of PEP006 peptide and rhHsc70 protein was measured at the wavelengths of 214 nm and 280 nm. The absorbance data was processed by Waters Empower (V2) software. […]
FIG. 3B is a graph showing percent complexation of a polypeptide comprising PEP006 with HSC70 over a range of polypeptide:Hsc70 molar ratios from 0.125:1 to 4:1, as calculated from size exclusion chromatography traces similar to those in FIG. 3A, using the methods described Example 6.1.1. […]

A further experiment has as its target T2, human Hsc70 (Homo sapiens, UniProt P11142).
T2 construct: made in house; host or cells: E. coli
Nature of the experiment: Percent complexation of peptides with Hsc70 by size exclusion chromatography. It is filed as binding. Conditions: 60 minutes at 30° C., SEC, 214 nm. As to the method: In a separate experiment, further variants of the peptide NLLRLTG (SEQ ID NO: 70) were generated and the ability of these peptides to form a peptide-Hsc70 complex was analyzed. Peptides were again synthesized using standard Fmoc solid-phase chemical synthesis, as described above. Individual peptides were solubilized in pH adjusted water at a concentration of 250 μM, and spiked with polysorbate 20 to a final concentration of 0.1%. To form a peptide-Hsc70 complex, Hsc70 (1 mg/ml, 0.1% polysorbate) was mixed with peptide at peptide:Hsc70 molar ratios of, 0.25:1, 0.5:1, 1:1, 2:1, and 4:1, for 60 minutes at 30° C. Following incubation, samples were cooled for 5 minutes at room temperature and transferred to HPLC vials for analysis. To evaluate the quantity of the complex in the solution, 20 μl (10 μg) of the sample was loaded on a size exclusion chromatography column TSKgel SuperSW3000 (Tosoh Bioscience) at a flow rate of 0.2 ml/min with 1×PBS as a running buffer. The data was collected by measuring the absorbance at 214 nm.
The percent of Hsc70 bound to peptide was calculated by SEC. As shown in the SEC chromatogram depicted in FIG. 1, recombinant human heat shock cognate 71 kDa protein (Hsc70) appeared as monomer (M), dimer (D), trimer (T), and higher order high molecular weight (HMW) oligomeric species when subjected to SEC chromatography. Resolution and evaluation of the extent to which peptide-Hsc70 complex was formed with a given peptide or peptide mixture was complicated by the close elution of a complex of Hsc70 monomer with peptide (Msh). The peaks corresponding to monomer and complex overlap and were not fully resolved by conventional SEC media. In order to more accurately calculate the extent of complex formation, the following data analytical method was used. […] Peak area integrations of these protein species were well resolved from the complex and monomer. Further, the extent to which complex was formed appeared to be […] to the extent to which trimer and dimer were recruited to complex formation. Because of this observation, changes in trimer and dimer reflected the extent to which monomer was recruited to the formation of complex. Thus, the progression of changes in the level of trimer and dimer was used to calculate expected changes in the peak areas of overlapping complex and monomer species, and these calculated peak areas were used to calculate net formation of complex.
Terms used for various chromatographic fractions include: High Molecular Weight (HMW), Trimer and other mid-order oligomer (T), Dimer (D), Complex (C), Monomer shoulder (Msh), and Monomer (M) (see FIG. 1). Peak areas of the various fractions were extracted from SEC data and the percentage of peptide-Hsc70 complex formation was calculated using the following set of equations: % Complex=(AREAcomplex/AREATotal)×100 AREAcomplex=AREATotal−(AreaT+D+AreaMshx+AreaMx) AREATotal=AREAT+D,C,Msh,M+(AREAHDw-x−AREAHDW-0) AREAMshx=AREAMsh0×(AREA(T+D)x)/(AREA(T+D)0) AREAMx=AREAM0×(AREA(T+D)x)/(AREA(T+D)0)
AREATotal is the sum of total integrated peak areas from trimer/oligomer region through the monomer peak and excludes the initial HMW peak area but includes the excess increase of the HMW peak area that was observed when peptide was added. The HMW peak was excluded from the complexation calculation on the basis that it was aggregated protein that was not functional for complexation. This correction took into account AreaTotal factors in the minor increase in HMW area, adding it back to base total area used to calculate area of complex.
The foregoing method was applied to the SEC chromatogram for each complexation reaction by applying vertical lines to the chromatogram to produce HMW, T, C, D, and M segments (as shown in FIG. 1), calculating the area under the curve for of each of the indicated HMW, T, C, D, and M segments, and inputting the values into the equations described above.

T2 sequence (P11142 whole entry): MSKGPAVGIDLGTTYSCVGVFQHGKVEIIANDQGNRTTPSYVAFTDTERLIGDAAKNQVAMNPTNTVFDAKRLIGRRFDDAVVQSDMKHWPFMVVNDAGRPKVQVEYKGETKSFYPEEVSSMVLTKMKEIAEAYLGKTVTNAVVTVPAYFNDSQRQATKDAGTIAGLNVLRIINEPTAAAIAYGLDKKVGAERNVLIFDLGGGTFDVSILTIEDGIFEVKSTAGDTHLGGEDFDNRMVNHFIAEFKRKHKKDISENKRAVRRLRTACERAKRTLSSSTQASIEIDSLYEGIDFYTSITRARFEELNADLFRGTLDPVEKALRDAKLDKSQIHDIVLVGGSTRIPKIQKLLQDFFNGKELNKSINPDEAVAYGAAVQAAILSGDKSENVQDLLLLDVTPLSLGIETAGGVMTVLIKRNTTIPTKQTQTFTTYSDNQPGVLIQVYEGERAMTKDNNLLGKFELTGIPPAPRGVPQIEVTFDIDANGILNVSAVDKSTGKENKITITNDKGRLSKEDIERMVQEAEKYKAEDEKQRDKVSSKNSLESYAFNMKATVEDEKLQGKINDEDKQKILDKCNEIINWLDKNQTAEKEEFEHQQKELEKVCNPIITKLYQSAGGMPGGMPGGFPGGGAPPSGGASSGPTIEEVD
T1 sequence (P11142 whole entry): as above

On to FFRKNWLRLTW [PEP006], for which, in experiment [1] (PEP006:rhHsc70 molar ratios 0.25:1 to 3:1, 37° C. 60 minutes, FIG. 2), the “column retention time of complexation products when rhHsc70 bound” value is “column retention time became shorter”. Further, in the experiment with human Hsc70 (peptide:Hsc70 molar ratio 0.25:1), the “Percent complexation of peptides with Hsc70, 0.25:1” value came out at 25.4%. Besides, in the experiment with human Hsc70 (peptide:Hsc70 molar ratio 0.5:1), the “Percent complexation of peptides with Hsc70, 0.5:1” value is listed as 53.4%. Moreover, the “Percent complexation of peptides with Hsc70, 1:1” value with human Hsc70 (peptide:Hsc70 molar ratio 1:1) is given as 81.5%. The “Percent complexation of peptides with Hsc70, 2:1” value with human Hsc70 (peptide:Hsc70 molar ratio 2:1) was 88.3%. Besides, the “Percent complexation of peptides with Hsc70, 4:1” value in the experiment with human Hsc70 (peptide:Hsc70 molar ratio 4:1) stood at 91.8%.
Turning to “LGVVRPRALHRELDLVDDSPTPGSPGSFFRKNWLRLTW [polypeptide comprising PEP006]”, the “column retention time of complexation products when rhHsc70 bound” value in experiment [1] (polypeptide:Hsc70 molar ratios 0.125:1 to 4:1, FIG. 3A) is “column retention time became shorter”.
